B1: library; numbered along this chain (parent)
chain: MAAAAAAAAEQQSSNGPVKKSMREKAVERRSVNKEHNSNFKAGYIPIDEDRLHKTGLRGRKGNLAICVIILLFILAVINLIITLVIWAVIRIGPNGCDSMEFHESGLLRFKQVSDMGVIHPLYKSTVGGRRNENLVITGNNQPIVFQQGTTKLSVENNKTSITSDIGMQFFDPRTQNILFSTDYETHEFHLPSGVKSLNVQKASTERITSNATSDLNIKVDGRAIVRGNEGVFIMGKTIEFHMGGNMELKAENSIILNGSVMVSTTRLPSSSSGDQLGSGDWVRYKLCMCADGTLFKVQVTSQNMGCQISDNPCGNTH

Variants of: B1
Assay: SGCB cell-surface expression functional score (HA stain, bin4 vs bin1, normalised to synonymous) (log10 ratio); higher = more cell-surface SGCB (functional)
Method: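 Deep mutational scan of full-length human SGCB (YFP-SGCB-HA, NNN codon sublibraries A-F) delivered by lentivirus at low MOI into ADG-HEK293 cells stably expressing SGCA, SGCD and SGCG. YFP-positive cells were stained for surface HA on unpermeabilized cells and FACS-sorted into bins. The functional score is log10(frequency in high bin 4 / frequency in low bin 1), normalised per chunk so that synonymous variants have mean 0 and SD 0.5. Scores are the median over codons and over duplicate biological replicates; scores below -0.5 are called non-functional. Scale: negative means deleterious.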

Row | Variant | SGCB cell-surface expression functional score (log10)
1 | MAAAAAAAAEQQSSNGPVKKSMREKAVERRLVNKEHNSNFKAGYIPIDEDRLHKTGLRGRKGNLAICVIILLFILAVINLIITLVIWAVIRIGPNGCDSMEFHESGLLRFKQVSDMGVIHPLYKSTVGGRRNENLVITGNNQPIVFQQGTTKLSVENNKTSITSDIGMQFFDPRTQNILFSTDYETHEFHLPSGVKSLNVQKASTERITSNATSDLNIKVDGRAIVRGNEGVFIMGKTIEFHMGGNMELKAENSIILNGSVMVSTTRLPSSSSGDQLGSGDWVRYKLCMCADGTLFKVQVTSQNMGCQISDNPCGNTH [S31L] | 0.11
2 | MAAAAAAAAEQQSSNGPVKKSMREKAVERRKVNKEHNSNFKAGYIPIDEDRLHKTGLRGRKGNLAICVIILLFILAVINLIITLVIWAVIRIGPNGCDSMEFHESGLLRFKQVSDMGVIHPLYKSTVGGRRNENLVITGNNQPIVFQQGTTKLSVENNKTSITSDIGMQFFDPRTQNILFSTDYETHEFHLPSGVKSLNVQKASTERITSNATSDLNIKVDGRAIVRGNEGVFIMGKTIEFHMGGNMELKAENSIILNGSVMVSTTRLPSSSSGDQLGSGDWVRYKLCMCADGTLFKVQVTSQNMGCQISDNPCGNTH [S31K] | 0.25
3 | MAAAAAAAAEQQSSNGPVKKSMREKAVERRRVNKEHNSNFKAGYIPIDEDRLHKTGLRGRKGNLAICVIILLFILAVINLIITLVIWAVIRIGPNGCDSMEFHESGLLRFKQVSDMGVIHPLYKSTVGGRRNENLVITGNNQPIVFQQGTTKLSVENNKTSITSDIGMQFFDPRTQNILFSTDYETHEFHLPSGVKSLNVQKASTERITSNATSDLNIKVDGRAIVRGNEGVFIMGKTIEFHMGGNMELKAENSIILNGSVMVSTTRLPSSSSGDQLGSGDWVRYKLCMCADGTLFKVQVTSQNMGCQISDNPCGNTH [S31R] | -0.03
4 | MAAAAAAAAEQQSSNGPVKKSMREKAVERRPVNKEHNSNFKAGYIPIDEDRLHKTGLRGRKGNLAICVIILLFILAVINLIITLVIWAVIRIGPNGCDSMEFHESGLLRFKQVSDMGVIHPLYKSTVGGRRNENLVITGNNQPIVFQQGTTKLSVENNKTSITSDIGMQFFDPRTQNILFSTDYETHEFHLPSGVKSLNVQKASTERITSNATSDLNIKVDGRAIVRGNEGVFIMGKTIEFHMGGNMELKAENSIILNGSVMVSTTRLPSSSSGDQLGSGDWVRYKLCMCADGTLFKVQVTSQNMGCQISDNPCGNTH [S31P] | 0.13
5 | MAAAAAAAAEQQSSNGPVKKSMREKAVERRMVNKEHNSNFKAGYIPIDEDRLHKTGLRGRKGNLAICVIILLFILAVINLIITLVIWAVIRIGPNGCDSMEFHESGLLRFKQVSDMGVIHPLYKSTVGGRRNENLVITGNNQPIVFQQGTTKLSVENNKTSITSDIGMQFFDPRTQNILFSTDYETHEFHLPSGVKSLNVQKASTERITSNATSDLNIKVDGRAIVRGNEGVFIMGKTIEFHMGGNMELKAENSIILNGSVMVSTTRLPSSSSGDQLGSGDWVRYKLCMCADGTLFKVQVTSQNMGCQISDNPCGNTH [S31M] | -0.69
6 | MAAAAAAAAEQQSSNGPVKKSMREKAVERRQVNKEHNSNFKAGYIPIDEDRLHKTGLRGRKGNLAICVIILLFILAVINLIITLVIWAVIRIGPNGCDSMEFHESGLLRFKQVSDMGVIHPLYKSTVGGRRNENLVITGNNQPIVFQQGTTKLSVENNKTSITSDIGMQFFDPRTQNILFSTDYETHEFHLPSGVKSLNVQKASTERITSNATSDLNIKVDGRAIVRGNEGVFIMGKTIEFHMGGNMELKAENSIILNGSVMVSTTRLPSSSSGDQLGSGDWVRYKLCMCADGTLFKVQVTSQNMGCQISDNPCGNTH [S31Q] | -0.35
7 | MAAAAAAAAEQQSSNGPVKKSMREKAVERRIVNKEHNSNFKAGYIPIDEDRLHKTGLRGRKGNLAICVIILLFILAVINLIITLVIWAVIRIGPNGCDSMEFHESGLLRFKQVSDMGVIHPLYKSTVGGRRNENLVITGNNQPIVFQQGTTKLSVENNKTSITSDIGMQFFDPRTQNILFSTDYETHEFHLPSGVKSLNVQKASTERITSNATSDLNIKVDGRAIVRGNEGVFIMGKTIEFHMGGNMELKAENSIILNGSVMVSTTRLPSSSSGDQLGSGDWVRYKLCMCADGTLFKVQVTSQNMGCQISDNPCGNTH [S31I] | 0.39
8 | MAAAAAAAAEQQSSNGPVKKSMREKAVERRVVNKEHNSNFKAGYIPIDEDRLHKTGLRGRKGNLAICVIILLFILAVINLIITLVIWAVIRIGPNGCDSMEFHESGLLRFKQVSDMGVIHPLYKSTVGGRRNENLVITGNNQPIVFQQGTTKLSVENNKTSITSDIGMQFFDPRTQNILFSTDYETHEFHLPSGVKSLNVQKASTERITSNATSDLNIKVDGRAIVRGNEGVFIMGKTIEFHMGGNMELKAENSIILNGSVMVSTTRLPSSSSGDQLGSGDWVRYKLCMCADGTLFKVQVTSQNMGCQISDNPCGNTH [S31V] | 0.19
9 | MAAAAAAAAEQQSSNGPVKKSMREKAVERRWVNKEHNSNFKAGYIPIDEDRLHKTGLRGRKGNLAICVIILLFILAVINLIITLVIWAVIRIGPNGCDSMEFHESGLLRFKQVSDMGVIHPLYKSTVGGRRNENLVITGNNQPIVFQQGTTKLSVENNKTSITSDIGMQFFDPRTQNILFSTDYETHEFHLPSGVKSLNVQKASTERITSNATSDLNIKVDGRAIVRGNEGVFIMGKTIEFHMGGNMELKAENSIILNGSVMVSTTRLPSSSSGDQLGSGDWVRYKLCMCADGTLFKVQVTSQNMGCQISDNPCGNTH [S31W] | 0.21
10 | MAAAAAAAAEQQSSNGPVKKSMREKAVERRTVNKEHNSNFKAGYIPIDEDRLHKTGLRGRKGNLAICVIILLFILAVINLIITLVIWAVIRIGPNGCDSMEFHESGLLRFKQVSDMGVIHPLYKSTVGGRRNENLVITGNNQPIVFQQGTTKLSVENNKTSITSDIGMQFFDPRTQNILFSTDYETHEFHLPSGVKSLNVQKASTERITSNATSDLNIKVDGRAIVRGNEGVFIMGKTIEFHMGGNMELKAENSIILNGSVMVSTTRLPSSSSGDQLGSGDWVRYKLCMCADGTLFKVQVTSQNMGCQISDNPCGNTH [S31T] | 0.06
11 | MAAAAAAAAEQQSSNGPVKKSMREKAVERRYVNKEHNSNFKAGYIPIDEDRLHKTGLRGRKGNLAICVIILLFILAVINLIITLVIWAVIRIGPNGCDSMEFHESGLLRFKQVSDMGVIHPLYKSTVGGRRNENLVITGNNQPIVFQQGTTKLSVENNKTSITSDIGMQFFDPRTQNILFSTDYETHEFHLPSGVKSLNVQKASTERITSNATSDLNIKVDGRAIVRGNEGVFIMGKTIEFHMGGNMELKAENSIILNGSVMVSTTRLPSSSSGDQLGSGDWVRYKLCMCADGTLFKVQVTSQNMGCQISDNPCGNTH [S31Y] | -0.26
12 | MAAAAAAAAEQQSSNGPVKKSMREKAVERRNVNKEHNSNFKAGYIPIDEDRLHKTGLRGRKGNLAICVIILLFILAVINLIITLVIWAVIRIGPNGCDSMEFHESGLLRFKQVSDMGVIHPLYKSTVGGRRNENLVITGNNQPIVFQQGTTKLSVENNKTSITSDIGMQFFDPRTQNILFSTDYETHEFHLPSGVKSLNVQKASTERITSNATSDLNIKVDGRAIVRGNEGVFIMGKTIEFHMGGNMELKAENSIILNGSVMVSTTRLPSSSSGDQLGSGDWVRYKLCMCADGTLFKVQVTSQNMGCQISDNPCGNTH [S31N] | 0.37
13 | MAAAAAAAAEQQSSNGPVKKSMREKAVERRSDNKEHNSNFKAGYIPIDEDRLHKTGLRGRKGNLAICVIILLFILAVINLIITLVIWAVIRIGPNGCDSMEFHESGLLRFKQVSDMGVIHPLYKSTVGGRRNENLVITGNNQPIVFQQGTTKLSVENNKTSITSDIGMQFFDPRTQNILFSTDYETHEFHLPSGVKSLNVQKASTERITSNATSDLNIKVDGRAIVRGNEGVFIMGKTIEFHMGGNMELKAENSIILNGSVMVSTTRLPSSSSGDQLGSGDWVRYKLCMCADGTLFKVQVTSQNMGCQISDNPCGNTH [V32D] | 0.47
14 | MAAAAAAAAEQQSSNGPVKKSMREKAVERRSGNKEHNSNFKAGYIPIDEDRLHKTGLRGRKGNLAICVIILLFILAVINLIITLVIWAVIRIGPNGCDSMEFHESGLLRFKQVSDMGVIHPLYKSTVGGRRNENLVITGNNQPIVFQQGTTKLSVENNKTSITSDIGMQFFDPRTQNILFSTDYETHEFHLPSGVKSLNVQKASTERITSNATSDLNIKVDGRAIVRGNEGVFIMGKTIEFHMGGNMELKAENSIILNGSVMVSTTRLPSSSSGDQLGSGDWVRYKLCMCADGTLFKVQVTSQNMGCQISDNPCGNTH [V32G] | 0.1
15 | MAAAAAAAAEQQSSNGPVKKSMREKAVERRSANKEHNSNFKAGYIPIDEDRLHKTGLRGRKGNLAICVIILLFILAVINLIITLVIWAVIRIGPNGCDSMEFHESGLLRFKQVSDMGVIHPLYKSTVGGRRNENLVITGNNQPIVFQQGTTKLSVENNKTSITSDIGMQFFDPRTQNILFSTDYETHEFHLPSGVKSLNVQKASTERITSNATSDLNIKVDGRAIVRGNEGVFIMGKTIEFHMGGNMELKAENSIILNGSVMVSTTRLPSSSSGDQLGSGDWVRYKLCMCADGTLFKVQVTSQNMGCQISDNPCGNTH [V32A] | 0.26
16 | MAAAAAAAAEQQSSNGPVKKSMREKAVERRSFNKEHNSNFKAGYIPIDEDRLHKTGLRGRKGNLAICVIILLFILAVINLIITLVIWAVIRIGPNGCDSMEFHESGLLRFKQVSDMGVIHPLYKSTVGGRRNENLVITGNNQPIVFQQGTTKLSVENNKTSITSDIGMQFFDPRTQNILFSTDYETHEFHLPSGVKSLNVQKASTERITSNATSDLNIKVDGRAIVRGNEGVFIMGKTIEFHMGGNMELKAENSIILNGSVMVSTTRLPSSSSGDQLGSGDWVRYKLCMCADGTLFKVQVTSQNMGCQISDNPCGNTH [V32F] | -0.5
17 | MAAAAAAAAEQQSSNGPVKKSMREKAVERRSHNKEHNSNFKAGYIPIDEDRLHKTGLRGRKGNLAICVIILLFILAVINLIITLVIWAVIRIGPNGCDSMEFHESGLLRFKQVSDMGVIHPLYKSTVGGRRNENLVITGNNQPIVFQQGTTKLSVENNKTSITSDIGMQFFDPRTQNILFSTDYETHEFHLPSGVKSLNVQKASTERITSNATSDLNIKVDGRAIVRGNEGVFIMGKTIEFHMGGNMELKAENSIILNGSVMVSTTRLPSSSSGDQLGSGDWVRYKLCMCADGTLFKVQVTSQNMGCQISDNPCGNTH [V32H] | 0.35
18 | MAAAAAAAAEQQSSNGPVKKSMREKAVERRSENKEHNSNFKAGYIPIDEDRLHKTGLRGRKGNLAICVIILLFILAVINLIITLVIWAVIRIGPNGCDSMEFHESGLLRFKQVSDMGVIHPLYKSTVGGRRNENLVITGNNQPIVFQQGTTKLSVENNKTSITSDIGMQFFDPRTQNILFSTDYETHEFHLPSGVKSLNVQKASTERITSNATSDLNIKVDGRAIVRGNEGVFIMGKTIEFHMGGNMELKAENSIILNGSVMVSTTRLPSSSSGDQLGSGDWVRYKLCMCADGTLFKVQVTSQNMGCQISDNPCGNTH [V32E] | -0.59
19 | MAAAAAAAAEQQSSNGPVKKSMREKAVERRSCNKEHNSNFKAGYIPIDEDRLHKTGLRGRKGNLAICVIILLFILAVINLIITLVIWAVIRIGPNGCDSMEFHESGLLRFKQVSDMGVIHPLYKSTVGGRRNENLVITGNNQPIVFQQGTTKLSVENNKTSITSDIGMQFFDPRTQNILFSTDYETHEFHLPSGVKSLNVQKASTERITSNATSDLNIKVDGRAIVRGNEGVFIMGKTIEFHMGGNMELKAENSIILNGSVMVSTTRLPSSSSGDQLGSGDWVRYKLCMCADGTLFKVQVTSQNMGCQISDNPCGNTH [V32C] | 0.14

Reference: the supplement of paper PMC10266784
